T1: Mouse FcRn (FCGRT/B2M) (mouse, UniProt Q61559 22-297; P01887 21-119, biotin-labelled (Avi-Tag))
T1 construct: Purchased; also called murine FcRn; murine FcRn receptor
T1 sequence (looked up): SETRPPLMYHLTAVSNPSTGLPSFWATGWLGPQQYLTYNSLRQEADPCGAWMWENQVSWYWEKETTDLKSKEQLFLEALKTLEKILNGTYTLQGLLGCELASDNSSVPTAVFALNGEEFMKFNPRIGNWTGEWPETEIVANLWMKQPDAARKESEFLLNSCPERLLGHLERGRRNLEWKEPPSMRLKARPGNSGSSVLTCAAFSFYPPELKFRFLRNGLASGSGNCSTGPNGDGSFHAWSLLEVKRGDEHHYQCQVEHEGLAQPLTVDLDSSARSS
T1 sequence (b2m, looked up): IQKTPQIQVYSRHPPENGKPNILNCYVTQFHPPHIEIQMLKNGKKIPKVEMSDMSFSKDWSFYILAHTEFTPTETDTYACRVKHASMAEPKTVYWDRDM


How the values were obtained:
[1] = target: T2, Cynomolgus FcRn (FCGRT/B2M) (cynomolgus, UniProt Q8SPV9 24-297; Q8SPW0 21-119, biotin-labelled (Avi-Tag)); experiment: SPR (Biacore T200), pH 6.0, biotinylated FcRn captured, multi cycle kinetics, 1:1 model
T2 construct: Purchased; also called FcRn (FCGRT/B2M), Avi-Tag, Biotin-Labeled, (Cynomolgus) Acro Cat #FCM-C82W5
Protocol: (§1) Binding of EGFR/CD16A antigen-binding proteins to FcRn (human, cynomolgus, murine) was measured on a Biacore T200 Instrument at 25° C. using PBS-T buffer pH 6.0 as running buffer and for dilution (1×Gibco PBS, 0.005% Tween20, titrated to pH 6.0 using 4 M HCl). For this purpose, a Multi Cycle Kinetic experiments was performed using Biotin CAPture Kit (GE Healthcare). For activation of the sensor surface, Biotin CAPture reagent (GE Healthcare) was injected to Flow Cells Fc 1-4 (100 sec, 5 μL/min) resulting in a response of 2100 RU-2800 RU. Biotinylated FcRn of different species were injected to Flow Cell Fc 2 (5 μL/min) resulting in a response of about 8-15 RU. A dilution series of EGFR/CD16A antigen-binding proteins was in (pH 7.4) as running buffer and for dilution. […] Chip was regenerated using Regeneration solution (GE Healthcare) (10 μL/min, Flow cells 1-4, 120 sec). Sensorgrams are referenced by subtraction of zero concentration cycle and subtraction of signals in reference channel Fc 1 (Fc 2-1, Fc 3-1, Fc 4-1). […] Chip was regenerated using Regeneration solution (GE Healthcare) (10 μL/min, Flow cells 1-4, 120 sec). […] Binding kinetics were evaluated by fitting data to 1:1 Binding Model (Rmax and RI locally fitted) using Biacore T200 Evaluation Software.

[2] = target: T3, CD16A on primary human NK-cells (human, UniProt P08637 17-254); experiment: flow cytometry on primary human NK-cells, 37° C., without gammanorm
T3 construct: whole, on cells; also called FcγRIIIA
Protocol: (§2) After the last staining step, the cells were washed again and resuspended in 0.2 mL of FACS buffer containing 2 μg/mL propidium iodide (PI) (Sigma, cat.: P4170) in order to exclude dead cells. The fluorescence of 2-5×10³ living cells was measured using a Millipore Guava EasyCyte flow cytometer (Merck Millipore, Schwalbach, Germany). Mean fluorescence intensities of the cell samples were calculated using Incyte software (Merck Millipore, Schwalbach, Germany). After subtracting the fluorescence intensity values of the cells stained with the secondary and tertiary reagents alone, the values were used for non-linear regression analysis using the GraphPad Prism software (GraphPad Prism version 6.00 for Windows, GraphPad Software, La Jolla Calif. USA). For the calculation of KD, the equation for one-site-binding (hyperbola) was used.
(§3) To assess the impact of physiological concentrations of human IgG on the binding capacity of bispecific EGFR/CD16A antigen-binding proteins, binding assays with several bispecific EGFR/CD16A antigen-binding proteins on primary human NK-cells were performed in presence or absence of 10 mg/mL polyclonal human IgG as exemplarily shown in FIG. 10.

human EGFR on cells [3] = target: T4, human EGFR on cells (human, UniProt P00533 25-1210); experiment: flow cytometry on EGFR-expressing A-431 cells, 37° C.
T4 construct: whole, on cells; also called EGFR+ CHO cells

huCD16A^RV-His = target: T5, huCD16A^RV-His (human); experiment: ELISA, coated EGFR/CD16A Bi-scFv-Fc, soluble huCD16A^RV-His titrated (the concentration axis is that of the antigen), Penta-HIS-HRP per paragraph 126
T5 construct: soluble, His-tagged; also called CD16-His antigen
Protocol: (§4) 96-well ELISA plates (Immuno MaxiSorp; Nunc) were coated overnight at 4° C. with recombinant antigen or antibodies in 100 mM Carbonate-bicarbonate buffer. […] After a blocking step with 3% (w/v) skim milk powder (Merck) dissolved in PBS, serial dilutions of the different antibodies or soluble antigens in PBS containing 0.3% (w/v) skim milk powder were incubated on the plates for 1.5 h at room temperature. After washing three times with 300 μL per well of PBS containing 0.1% (v/v) Tween 20, plates were incubated with detection antibodies for 1 h at room temperature. For the detection of His-tagged analytes, Penta-HIS-HRP (Qiagen) was used at 1:3000 dilution. […] After washing three times with 300 μL per well of PBS containing 0.1% (v/v) Tween 20, plates were incubated with Tetramethylbenzidine (TMB) substrate (Seramun) until colour development was clearly visible. The reaction was stopped through the addition of 100 μL per well of 0.5 M H₂SO₄. The absorbance was measured at 450 nm using a multilabel plate reader (Victor, Perkin Elmer).

EGFR-mFc = target: T6, EGFR-mFc; experiment: ELISA, coated EGFR-mFc antigen, Bi-scFv-Fc titrated, bound construct detected with biotinylated CD16-Fc and streptavidin-HRP
T6 construct: Coated at 2.5 µg/mL in ELISA; also called monomeric EGFR-mFc; EGFR-mFc antigen
Protocol: as §4

[4] = target: T3, CD16A on primary human NK-cells; experiment: flow cytometry on primary human NK-cells, 37°C, without IgG; mean of 2 experiments
Protocol: as §2, §3

human EGFR on cells [5] = target: T4, human EGFR on cells; experiment: cell-based or functional assay
Mouse FcRn (FCGRT/B2M) = target: T1, Mouse FcRn (FCGRT/B2M); experiment: SPR (Biacore T200), pH 6.0, biotinylated FcRn captured, multi cycle kinetics, 1:1 model
Protocol: as §1

Human FcRn (FCGRT/B2M) = target: T7, Human FcRn (FCGRT/B2M) (human, UniProt P55899 24-297; P61769 21-119, biotin-labelled (site not stated)); experiment: as above
T7 construct: Purchased; also called FcRn (FCGRT/B2M), His-Tag, Biotin-Labeled, (Human) HiP Cat #71283

human EGFR on cells [6] = target: T4, human EGFR on cells; experiment: cell-based or functional assay; remark: listed apart in the source
[7] = target: T3, CD16A on primary human NK-cells; experiment: flow cytometry on primary human NK-cells, 37°C, with 10 mg/mL polyclonal human IgG (Gammanorm); mean of 2 experiments
Protocol: as §2, §3

human EGFR on cells [8] = target: T4, human EGFR on cells; experiment: cell-based or functional assay; remark: listed apart in the source
human EGFR on cells [9] = target: T4, human EGFR on cells; experiment: flow cytometry on A-431 cells, 37°C; mean of 4 experiments
CD16A-antigen (ELISA) = target: T8, CD16A-antigen (ELISA); experiment: ELISA, coated CD16A-Fc antigen, aTriFlex titrated (His-tagged analyte, Penta-HIS-HRP per paragraph 126)
T8 construct: also called CD16A-Fc
Protocol: as §4

[10] = target: T3, CD16A on primary human NK-cells; experiment: flow cytometry on primary human NK-cells, 37°C, with 10 mg/mL polyclonal human IgG (Gammanorm); with 10 mg/mL polyclonal human IgG (Gammanorm)
EGFR-antigen (ELISA) = target: T9, EGFR-antigen (ELISA); experiment: ELISA, coated EGFR-Fc antigen, aTriFlex titrated (His-tagged analyte, Penta-HIS-HRP per paragraph 126)
T9 construct: also called EGFR-Fc
Protocol: as §4

T7 sequence (P55899 24-297 limits assumed, chain 1 of 2): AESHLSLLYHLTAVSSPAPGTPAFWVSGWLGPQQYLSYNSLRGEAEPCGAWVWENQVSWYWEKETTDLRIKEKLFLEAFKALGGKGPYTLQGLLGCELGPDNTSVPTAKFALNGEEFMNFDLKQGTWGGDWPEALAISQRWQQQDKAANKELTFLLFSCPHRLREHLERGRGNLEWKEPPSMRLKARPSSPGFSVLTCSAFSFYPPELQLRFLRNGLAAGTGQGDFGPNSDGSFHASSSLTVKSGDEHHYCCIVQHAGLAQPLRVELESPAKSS
T7 sequence (P61769 21-119 limits assumed, chain 2 of 2): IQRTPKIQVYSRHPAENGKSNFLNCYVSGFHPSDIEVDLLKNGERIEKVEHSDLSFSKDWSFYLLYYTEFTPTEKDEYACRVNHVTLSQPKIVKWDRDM
T2 sequence (Q8SPV9 24-297 limits assumed, chain 1 of 2): as the sequence (P55899 24-297 limits assumed, chain 1 of 2) above, with N39D, E44Q, G99S, S189G, S190N, L217M, S269T counted along it
T2 sequence (Q8SPW0 21-119 limits assumed, chain 2 of 2): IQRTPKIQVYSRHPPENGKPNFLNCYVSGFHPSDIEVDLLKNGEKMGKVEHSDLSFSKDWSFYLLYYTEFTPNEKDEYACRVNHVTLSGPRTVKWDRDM

Binder | Kd [1] | EC50 (read off the curve) [2] | EC50 (read off the curve) (human EGFR on cells [3]) | EC50 (read off the curve) (huCD16A^RV-His) | EC50 (read off the curve) (EGFR-mFc) | Kd [4] | EC50 [pM] mean, 4 h calcein-release cytotoxicity, A-431 target cells, human NK-cells E:T 5:1 (human EGFR on cells [5]) | Kd (Mouse FcRn (FCGRT/B2M)) | Kd (Human FcRn (FCGRT/B2M)) | EC50 [pM] mean, 4 h calcein-release cytotoxicity, HCT-116 target cells, human NK-cells E:T 5:1 (human EGFR on cells [6]) | Kd [7] | EC50, inhibition of EGF-induced EGFR phosphorylation (phospho-EGFR ELISA, A-431 cells), Exp.2 (human EGFR on cells [8]) | Kd (human EGFR on cells [9]) | EC50 (read off the curve) (CD16A-antigen (ELISA)) | Kd [10] | EC50 (read off the curve) (EGFR-antigen (ELISA))
Bi-scFv-Fc_02 (bispecific antibody, human IgG1, Homodimer: anti-CD16A scFv-Hinge-CH2-CH3 (silenced)-anti-EGFR scFv; also called EGFR/CD16A Bi-scFv-Fc; Bi-scFv-Fc_2) SYVLTQPSSVSVAPGQTATISCGGHNIGSKNVHWYQQRPGQSPVLVIYQDNKRPSGIPERFSGSNSGNTATLTISGTQAMDEADYYCQVWDNYSVLFGGGTKLTVLGGSGGSGGSGGSGGSGGSGGSQVQLVQSGAEVKKPGESLKVSCKASGYTFTSYYMHWVRQAPGQGLEWMGIINPSGGSTSYAQKFQGRVTMTRDTSTSTVYMELSSLRSEDTAVYYCARGSAYYYDFADYWGQGTLVTVSSEPKSCDKTHTCPPCPAPEFEGGPSVFLFPPKPKDTLMISRTPEVTCVVVAVSHEDPEVKFNWYVDGVEVHNAKTKPREEQYNSTYRVVSVLTVLHQDWLNGKEYKCKVSNKALPAPIEKTISKAKGQPREPQVYTLPPSREEMTKNQVSLTCLVKGFYPSDIAVEWESNGQPENNYKTTPPVLDSDGSFFLYSKLTVDKSRWQQGNVFSCSVMHEALHNHYTQKSLSLSPGGGGGSGGGGSQVQLQESGPGLVKPSETLSLTCTVSGGSVSSGSYYWSWIRQPPGKGLEWIGYIYYSGSTNYNPSLKSRVTISVDTSKNQFSLKLSSVTAADTAVYYCARNPISIPAFDIWGQGTMVTVSSGGSGGSGGSGGSGGSGGSQPVLTQPPSVSVAPGKTARITCGGNNIGSKSVHWYQQKPGQAPVLVIYYDSDRPSGIPERFSGSNSGNTATLTISRVEAGDEADYYCQVWDTSSDHVLFGGGTKLTVL | 268 nM | ~6 nM | ~2 nM | ~4 nM | ~0.02 µg/mL | 5 nM | 2.7 pM | 121 nM | 410 nM | 3.8 pM | 20 nM | – | – | – | – | –
scFv-IgAb_01 (bispecific antibody) chain 1: QVQLQESGPGLVKPSETLSLTCTVSGGSVSSGSYYWSWIRQPPGKGLEWIGYIYYSGSTNYNPSLKSRVTISVDTSKNQFSLKLSSVTAADTAVYYCARNPISIPAFDIWGQGTMVTVSSASTKGPSVFPLAPSSKSTSGGTAALGCLVKDYFPEPVTVSWNSGALTSGVHTFPAVLQSSGLYSLSSVVVPSSSLGTQTYICNVNHKPSNTKVDKKVEPKSCDKTHTCPPCPAPEFEGGPSVFLFPPKPKDTLMISRTPEVTCVVVAVSHEDPEVKFNWYVDGVEVHNAKTKPREEQYNSTYRVVSVLTVLHQDWLNGKEYKCKVSNKALPAPIEKTISKAKGQPREPQVYTLPPSREEMTKNQVSLTCLVKGFYPSDIAVEWESNGQPENNYKTTPPVLDSDGSFFLYSKLTVDKSRWQQGNVFSCSVMHEALHNHYTQKSLSLSPGGGGGSGGGGSSYVLTQPSSVSVAPGQTATISCGGHNIGSKNVHWYQQRPGQSPVLVIYQDNKRPSGIPERFSGSNSGNTATLTISGTQAMDEADYYCQVWDNYSVLFGGGTKLTVLGGSGGSGGSGGSGGSGGSGGSQVQLVQSGAEVKKPGESLKVSCKASGYTFTSYYMHWVRQAPGQGLEWMGIINPSGGSTSYAQKFQGRVTMTRDTSTSTVYMELSSLRSEDTAVYYCARGSAYYYDFADYWGQGTLVTVSS chain 2: QPVLTQPPSVSVAPGKTARITCGGNNIGSKSVHWYQQKPGQAPVLVIYYDSDRPSGIPERFSGSNSGNTATLTISRVEAGDEADYYCQVWDTSSDHVLFGGGTKLTVLGQPKAAPSVTLFPPSSEELQANKATLVCLISDFYPGAVTVAWKADSSPVKAGVETTTPSKQSNNKYAASSYLSLTPEQWKSHRSYSCQVTHEGSTVEKTVAPTECS | – | – | – | – | – | – | – | – | – | – | – | > 100 µg/mL | 2 nM | – | – | –
EGFR/CD16A/HSA aTriFlex (other, also called EGFR/CD16A aTriFlex) chain 1: QVQLQESGPGLVKPSETLSLTCTVSGGSVSSGSYYWSWIRQPPGKGLEWIGYIYYSGSTNYNPSLKSRVTISVDTSKNQFSLKLSSVTAADTAVYYCARNPISIPAFDIWGQGTMVTVSSGGSGGSGGSGGSGGSGGSQPVLTQPPSVSVAPGKTARITCGGNNIGSKSVHWYQQKPGQAPVLVIYYDSDRPSGIPERFSGSNSGNTATLTISRVEAGDEADYYCQVWDTSSDHVLFGGGTKLTVLGGSGGSGGSSYVLTQPSSVSVAPGQTATISCGGHNIGSKNVHWYQQRPGQSPVLVIYQDNKRPSGIPERFSGSNSGNTATLTISGTQAMDEADYYCQVWDNYSVLFGGGTKLTVLGGSGGSGGSSYVLTQPSSVSVAPGQTATISCGGHNIGSKNVHWYQQRPGQSPVLVIYQDNKRPSGIPERFSGSNSGNTATLTISGTQAMDEADYYCQVWDNYSVLFGGGTKLTVLGGSGGSGGSEVQLLESGGGLVQPGGSLRLSCAVSGIDLSNYAINWVRQAPGKGLEWIGIIWASGTTFYATWAKGRFTISRDNSKNTVYLQMNSLRAEDTAVYYCARTVPGYSTAPYFDLWGQGTLVTVSSGGSGGSGGSGGSGGSGGSDIQMTQSPSSVSASVGDRVTITCQSSPSVWSNFLSWYQQKPGKAPKLLIYEASKLTSGVPSRFSGSGSGTDFTLTISSLQPEDFATYYCGGGYSSISDTTFGGGTKVEIK chain 2: QVQLVQSGAEVKKPGESLKVSCKASGYTFTSYYMHWVRQAPGQGLEWMGIINPSGGSTSYAQKFQGRVTMTRDTSTSTVYMELSSLRSEDTAVYYCARGSAYYYDFADYWGQGTLVTVSSGGSGGSGGSQVQLVQSGAEVKKPGESLKVSCKASGYTFTSYYMHWVRQAPGQGLEWMGIINPSGGSTSYAQKFQGRVTMTRDTSTSTVYMELSSLRSEDTAVYYCARGSAYYYDFADYWGQGTLVTVSS | – | – | – | – | – | 50.8 nM | 5.1 pM | – | – | 17.6 pM | – | – | – | ~4 nM | 456 nM | ~7 nM
